Reference: PMC4148193, “Chromatin Insulator Factors Involved in Long-Range DNA Interactions and Their Role in the Folding of the Drosophila Genome” (PLoS Genetics, 2014)

Assays:
[1] = biological target: T1, CP190-BTB/POZ (Drosophila, UniProt Q24478 1-134); assay: fluorescence anisotropy; FA/FCS: 30 mM Tris/HCl pH 7.5, 100 mM NaCl, 20 uM ZnSO4, 5 mM mercaptoethanol, 0.01 mg/ml BSA, 0.004% Tween20, 2.5 nM DNA; EMSA: 150 mM NaCl, 30 mM Tris/HCl pH; conditions: protein: recombinant; tags: His; chain copies: 2; blunt
T1 sequence: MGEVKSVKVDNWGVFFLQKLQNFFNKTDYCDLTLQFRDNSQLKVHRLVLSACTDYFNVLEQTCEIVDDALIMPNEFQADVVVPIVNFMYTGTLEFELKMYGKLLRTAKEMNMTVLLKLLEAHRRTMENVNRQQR

[2] = biological target: T2, Chromator-C (Drosophila, UniProt Q86BS3 601-926); assay: as above; conditions: protein: recombinant; tags: N-term 6xHis; blunt
T2 sequence: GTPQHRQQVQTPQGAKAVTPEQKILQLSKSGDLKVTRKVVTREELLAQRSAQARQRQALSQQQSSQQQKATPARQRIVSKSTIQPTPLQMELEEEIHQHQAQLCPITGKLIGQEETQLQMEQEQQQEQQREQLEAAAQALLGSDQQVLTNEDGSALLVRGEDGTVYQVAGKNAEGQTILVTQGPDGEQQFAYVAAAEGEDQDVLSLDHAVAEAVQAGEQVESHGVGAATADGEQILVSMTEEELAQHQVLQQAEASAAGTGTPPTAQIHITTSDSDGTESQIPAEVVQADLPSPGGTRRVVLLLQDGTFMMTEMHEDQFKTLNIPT

[3] = biological target: T3, BEAF32 (BEAF32B);CP190 (Drosophila;Drosophila, UniProt Q94513;Q24478 1-282;1-1096, |); assay: FCS/PIE-FCCS; 400 nM BEAF32, 50 nM CP190; cross-correlation 18±6%, 65±22% of complexes bridged; FA/FCS: 30 mM Tris/HCl pH 7.5, 100 mM NaCl, 20 uM ZnSO4, 5 mM mercaptoethanol, 0.01 mg/ml BSA, 0.004% Tween20, 2.5 nM DNA; EMSA: 150 mM NaCl, 30 mM Tris/HCl pH; conditions: protein: recombinant;recombinant; tags: N-term MBP; C-term 6xHis;N-term 6xHis; blunt
T3 sequence 1: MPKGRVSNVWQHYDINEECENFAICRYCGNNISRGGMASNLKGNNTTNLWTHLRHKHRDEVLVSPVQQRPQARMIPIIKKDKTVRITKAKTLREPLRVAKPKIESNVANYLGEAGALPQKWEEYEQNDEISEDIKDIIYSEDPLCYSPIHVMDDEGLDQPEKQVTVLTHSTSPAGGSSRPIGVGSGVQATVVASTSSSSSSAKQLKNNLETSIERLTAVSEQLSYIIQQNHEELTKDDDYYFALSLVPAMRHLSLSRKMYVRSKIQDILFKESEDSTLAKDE
T3 sequence 2: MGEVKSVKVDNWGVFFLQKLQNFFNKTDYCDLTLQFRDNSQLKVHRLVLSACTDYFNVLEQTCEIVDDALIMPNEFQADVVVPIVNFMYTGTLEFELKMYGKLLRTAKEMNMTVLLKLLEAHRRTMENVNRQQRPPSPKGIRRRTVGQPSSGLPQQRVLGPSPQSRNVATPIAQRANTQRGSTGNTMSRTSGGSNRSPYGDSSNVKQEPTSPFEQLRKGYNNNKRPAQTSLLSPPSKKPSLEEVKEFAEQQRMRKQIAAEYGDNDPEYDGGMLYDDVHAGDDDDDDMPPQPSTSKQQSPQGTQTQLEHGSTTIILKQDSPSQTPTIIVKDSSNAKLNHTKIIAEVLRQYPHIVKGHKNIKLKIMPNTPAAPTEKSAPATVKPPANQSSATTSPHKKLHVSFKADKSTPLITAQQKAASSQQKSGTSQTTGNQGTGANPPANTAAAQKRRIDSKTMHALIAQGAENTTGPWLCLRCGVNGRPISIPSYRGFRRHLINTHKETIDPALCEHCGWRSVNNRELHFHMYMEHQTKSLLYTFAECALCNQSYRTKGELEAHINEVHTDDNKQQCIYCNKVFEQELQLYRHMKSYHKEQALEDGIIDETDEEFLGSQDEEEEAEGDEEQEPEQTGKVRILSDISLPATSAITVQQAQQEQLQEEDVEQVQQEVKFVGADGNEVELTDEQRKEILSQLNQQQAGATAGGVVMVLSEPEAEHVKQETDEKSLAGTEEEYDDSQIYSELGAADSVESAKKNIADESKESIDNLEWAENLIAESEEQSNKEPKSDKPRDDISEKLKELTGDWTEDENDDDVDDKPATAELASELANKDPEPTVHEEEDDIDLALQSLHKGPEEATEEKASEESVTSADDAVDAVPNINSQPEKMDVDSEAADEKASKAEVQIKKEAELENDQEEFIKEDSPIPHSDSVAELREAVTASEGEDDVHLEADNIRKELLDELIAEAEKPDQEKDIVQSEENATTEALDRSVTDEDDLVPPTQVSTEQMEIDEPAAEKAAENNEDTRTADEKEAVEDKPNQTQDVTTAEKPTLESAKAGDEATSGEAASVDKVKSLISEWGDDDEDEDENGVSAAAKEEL

[4] = biological target: T4, BEAF32 (BEAF32B);Chromator-C (Drosophila;Drosophila, UniProt Q94513;Q86BS3 1-282;601-926, |); assay: FCS/PIE-FCCS; 800 nM BEAF32, 100 nM Chromator-C; diffusion time slightly decreased, BEAF32 stays bound, no bridging; FA/FCS: 30 mM Tris/HCl pH 7.5, 100 mM NaCl, 20 uM ZnSO4, 5 mM mercaptoethanol, 0.01 mg/ml BSA, 0.004% Tween20, 2.5 nM DNA; EMSA: 150 mM NaCl, 30 mM Tris/HCl pH; conditions: protein: recombinant;recombinant; tags: N-term MBP; C-term 6xHis;N-term 6xHis; blunt
T4 sequence 1: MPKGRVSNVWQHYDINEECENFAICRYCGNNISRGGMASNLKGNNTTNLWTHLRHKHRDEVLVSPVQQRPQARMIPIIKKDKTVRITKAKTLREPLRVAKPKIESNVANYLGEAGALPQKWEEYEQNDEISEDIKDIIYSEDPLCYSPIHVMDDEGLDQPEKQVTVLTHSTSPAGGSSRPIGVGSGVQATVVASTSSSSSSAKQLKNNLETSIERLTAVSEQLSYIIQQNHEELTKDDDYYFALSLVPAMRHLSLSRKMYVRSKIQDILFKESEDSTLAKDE
T4 sequence 2: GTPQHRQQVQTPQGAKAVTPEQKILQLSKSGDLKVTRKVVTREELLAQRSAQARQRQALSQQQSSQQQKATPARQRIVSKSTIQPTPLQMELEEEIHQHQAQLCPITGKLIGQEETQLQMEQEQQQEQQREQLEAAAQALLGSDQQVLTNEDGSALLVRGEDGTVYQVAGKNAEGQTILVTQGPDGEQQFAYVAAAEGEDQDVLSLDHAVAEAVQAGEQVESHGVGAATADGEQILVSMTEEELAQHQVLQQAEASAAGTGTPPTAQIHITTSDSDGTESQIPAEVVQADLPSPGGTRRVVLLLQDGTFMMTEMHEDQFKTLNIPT

B1: DNAS (dsDNA)
DNA 1: AGAAGTCAGCGCGATAGCATCGATATTTTCGTGACACGCTTGTCATCCGATAGGTAGT
DNA 2: ACTACCTATCGGATGACAAGCGTGTCACGAAAATATCGATGCTATCGCGCTGACTTCT
B1: no binding [1]; no binding [2]; binds [3]. B1: binds [4].
